Results published in patent US8227193 (University of California, dated 2012).

Target: T1, human p52 DNA-binding domain (p52 DBD) (human, UniProt Q00653 1-340)
T1 construct: Expressed in E. coli from pET11a, without a poly-His tag; also called p52 RHD; NF-kB2/p52 Rel homology domain
T1 sequence: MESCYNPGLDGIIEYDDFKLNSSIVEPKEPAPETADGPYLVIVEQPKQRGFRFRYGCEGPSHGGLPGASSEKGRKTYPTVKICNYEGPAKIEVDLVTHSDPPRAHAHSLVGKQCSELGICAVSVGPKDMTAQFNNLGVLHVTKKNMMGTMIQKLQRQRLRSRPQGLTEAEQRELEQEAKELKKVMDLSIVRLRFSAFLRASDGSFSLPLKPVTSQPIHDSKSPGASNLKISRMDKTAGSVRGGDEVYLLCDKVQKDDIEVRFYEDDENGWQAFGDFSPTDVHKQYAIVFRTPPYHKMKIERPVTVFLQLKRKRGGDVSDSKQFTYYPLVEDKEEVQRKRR
Assay: co-refolding from 7 M urea (1:1.2 molar ratio), Ni-affinity capture through the His tag of RelB DBD (uncomplexed p52 DBD flows through), size exclusion; both proteins confirmed by western blotting
Protocol: His-RelB DBD and p52 DBD that had been purified as described above were mixed together in 1:1.2 molar ratio (i.e., with excess p52 DBD) and diluted to ~0.4 mg/ml concentration in a denaturing buffer B (7 M urea, 0.5 M NaCl, 20 mM Tris pH 7.5, 5 mM DTT, 10% glycerol). The denatured protein mixture (100 ml total volume that contained 40 mg total protein) was refolded by slowly removing urea by dialysis. The sample was subjected to dialysis against 2 L buffer C (buffer C was the same as buffer B except it lacked urea) for 6 hours. The dialysis step was repeated two more times. After dialysis, the refolded heterodimer was loaded onto the Ni-affinity column. Excess, uncomplexed p52 DBD flows through the column because it has no poly-His tag to bind Ni-affinity matrix. The heterodimer was eluted with imidazole. The eluate was concentrated and further purified using size exclusion chromatography (Superdex 200, Pharmacia). Fractions containing the heterodimer were pooled and concentrated. The presence of both proteins was confirmed by standard western blotting.

binding result: binds
B1: poly histidine tagged murine RelB DNA-binding domain (His-RelB DBD) (other)
chain: MPSRRAARESAPELGALGSSDLSSLSLTVSRTTDELEIIDEYIKENGFGLVGTQLSEMPRLVPRGPASLSSVTLGPAAPPPPATPSWSCTLGRLVSPGPCPRPYLVITEQPKQRGMRFRYECEGRSAGSILGESSTEASKTQPAIELRDCGGLREVEVTACLVWKDWPHRVHPHSLVGKDCTDGVCRVRLRPHVSPRHSFNNLGIQCVRKKEIEAAIERKIQLGIDPYNAGSLKNHQEVDMNVVRICFQASYRDQQGHLHRMDPILSEPVYDKKSTNTSELRICRINKESGPCTGGEELYLLCDKVQKEDISVVFSTASWEGRADFSQADVHRQIAIVFKTPPYEDLEISEPVTVNVFLQRLTDGVCSEPLPFTYLPRDHDSYGVDKKRKRGLPDVLGEL
notes: Expressed in E. coli from pET15b as a poly histidine fusion protein; also called RelB RHD; RelB Rel homology domain; not shown: poly-histidine tag from vector pET15b (Novagen)
